According to the DeepSol protein solubility set:

Test: soluble on expression in E. coli; label from the status in PepcDB or PDB records

Row | Sequence | soluble on expression in E. coli
1 | MENPHEQVQANILSRIIGNVKRLNESVAILNQELVTINNRNKNLEIMGAICDNYHSSVQFNLEATNNKKPPL | not soluble
2 | MGSDKIHHHHHHMRRVSIYELDPGMIVARAIFNSEERVLLHAGVELNEKYIHGLQKAGVMSVYIRDELFDESDAVSDIISEKTRLKAIRTLKESFNLLEKKHQLNLHAVKNTVDEIIDEIIANPNTLVSLTDIRSFDDYTYAHSVNVGVLSIMSGVSLNYERSQLKELGVGALLHDIGKIKIDKNILNKPDDLSPEEFTEIKQHSKAGFDILRQHSGLSLLSAHIAFQHHERWDGQGYPRQLSGEEIHEYARIVAVADVYDALVADRPYRPAYSVTQAISILKRMTGLFLDPQCVKAFLNNIAVYPLGCLLELNTGELGAVIDINRKTPAQPVVRVLYDRNWRLLTPYELDLSKNSALVVKNVLSERQIKELKKNL | not soluble
3 | MGSDKIHHHHHHMPTGLDCTQTMLYRRFGKTNLHLSVFSLGTMRYLADSENVQQTIATALALGINHIETARGYGKSEEYFGQAIKVGLSVARSQLYVTTKIPPTSDADSMRRYIDESLERLNLDYLDCLGIHGLNTWEHLEWVQAKGGCMKAVEEAINDGRIRHVGFSTHGSLEVIQAAINTDFFEFVNLHYYYFFQRNAPAIKLASEKDMGIFIISPADKGGKLYTAPQTLQDLCQPLSPLELNYRFLLSDQRITTLSVGPATPEELVEPLQVADSCGELTSAEITIFQRLQNHQESVLETDKCSQCYACLPCPENINIPEVLRLRNLAVAYNMTDYGQYRYGMFENAGHWFPGMKANRCTECGDCLPRCPEKLDIPNLLEDAHNRLNGRAGRRLWG | not soluble
4 | MQQPVINQQPGYNPQGMNPVQQFEMHQQQHQQAITTQPGVFVQPAPGSVWMPMPPAIQGVPTGLEYLTYLDTIMVHQIKELIEIVTDWETKNKYVLKNANGEQCYYAFEESGCCERQCCGPQRGFVMHIVDNFKREVLTIKREFKCCGGGCCGCLACIGCCQQECIIETPSMGVLGIIRQRCGCMSSNYDIMDGDGNVIFQIDGPCCCMLCGCQDKEFPIKTANNGTVVGAITKKWGGCFREAFTDADTFAVNFPGDLDVKLKGVLIGATFLIDFMEFEQQSQNRNNGGAYYSSS | not soluble
5 | MLAPERIHPALWRATQLAHGPTRKLPTGYADLSAQLPGGGWPLGALVELLLPQPGSGEIRLLRPALAQLEARRAIALVQPPHAPHIASWASWRLDPRQLLWVAPERPADALWAAEQILKAGSCAALLCWLPQVRPESLRRLHLAAQGGDALFVALRPAAAEQHASPAVLRLALAPAPGGLSIRIVKRRGPACEHPVHVGLEAGAGLSVFPAPHAPLDRRLPAQPVAGRRTPALVSLEHHHHHH | not soluble
6 | MGSDKIHHHHHHMSETSDTIREAFTESAWIPSPKEVFGPDGSLTEEVGEENKSLIWTLLKQIRPGMDLSKVVLPTFILEPRSFLEKLADYYYHADLISEAVAEPDPFQRIVKVTKFFLSGFYKKPKGLKKPYNPILGETFRCKWEHPDGSTTFYMAEQVSHHPPVSSLFITNRKAGFNISGTILAKSKYYGNSLSAILAGKLRLTLLNLGETYIVNLPYANCKGIMIGTMTMELGGEVNIECEKTGYRTTLDFKLKPMLGGAYNQIEGSIKYGSDRLASIEGAWDGVIRIKGPDGKKELWNPTPEVIKTRLPRYEINMDEQGEWESAKLWRHVTEAISNEDQYKATEEKTALENDQRARAKSGIPHETKFFKKQHGDDYVYIHADYRPWDNNNDIQQIENNYVVKTISRHSKRKTGNSEQLGSDNTSEASESDEE | not soluble
7 | MPIKSKANEVPKEEAGVKKETPKVARKATKKDTPKELKDKENAGDDNTPKQTKGRPGRPAAKRKNLDTPDVTEKLAMEEENPPKRRSSRLTRSTRSMAEDGSPSPEKEKPEKLPFIKYKGAIKYFTESQDIAASADDVLQWVEKQKDEVVPMAFDMEWPFSFQTGPGKSAVIQICVDEKCCYIYQLTNVKKLPAALVALINHPKVRLHGVNIKNDFRKLARDFPEVTAEPLIEKCVDLGLWCNEVCETGGRWSLERLTNFIAKKAMDKSKKVRMSKWHVIPLDENQLMYAAIDVYIGQVIYRELERREKVKIKNEEEFKEKNGDAAFKAMKALGETFLTKINEVTLLEHHHHHH | soluble
